Test results reported in US20230390371A1, “ANTI-TUMOR IMMUNITY INDUCES THE PRESENTATION OF ABERRANT PEPTIDES” (STICHTING HET NEDERLANDS KANKER INSTITUUT-ANTONI VAN …, priority 2020, published 2023).

Test system: MD55A3 melanoma cells
Assay: V5-ATF4(1-63)-His frameshift reporter, His-tag pulldown and V5-tag immunoblotting
Type: cell-based, human
Conditions: IFNγ treatment vs control, MD55A3 cells
Description: FIG. 3: W-Bumps are associated with disordered out-of-frame peptides, and shortage in tryptophan leads to frameshifting events. • (a) Bar-plots depicting total occurrences of alpha-helices, beta-sheets and turns for tryptophan-containing peptide sequences corresponding to W-Bumps (left) and all remaining peptide sequences (middle), and the difference in percentages (right). […] Tryptophan shortage, on the other hand, can lead to stalling on the tryptophan codon (bottom left panel), or could in theory induce frameshifting events, leading to aberrant peptide production (lower right panel). Since secondary structure of growing polypeptide chains is attained in the lower tunnel of the ribosome, the loss of an a-helical secondary structure in this tunnel could hamper ribosomal progression. (c) Line-plots depicting the probability of disorderedness of peptide sequences. The position of the tryptophan is indicated by the dashed line. […] The green line represents the average probability of disorderedness of all peptides (‘All tryptophan codons’, n=36508). A group of outlier candidates that show relatively ordered out-of-frame peptide sequences were selected for comparisons (‘Selected tryptophan codons’, n=94, red). (d) Line-plots depicting mean frequency of RPFs at single nucleotide resolution across all tryptophans (green) and the selected outlier set (red) from panel 3c. […]

B1: IFNγ: interferon gamma (PeproTech), used at 250 U/mL (protein, UniProt P01579 24-161, looked up)
Interferon gamma: QDPYVKEAENLKKYFNAGHSDVADNGTLFLGILKNWKEESDRKIMQSQIVSFYFKLFKNFKDDQSIQKSVETIKEDMNVKFFNSNKKKRDDFEKLTNYSVTDLNVQRKAIHELIQVMAELSPAAKTGKRKRSQMLFRG
With B1 the “His-tag pulldown of +1 and +2 reporter proteins (frameshifting events)” value was “partially pulled down”.
